In this data set the target is Cy3B-SSB (W88C SSB labeled with Cy3B, one per monomer) W89C (UniProt P0AGE0). The experiment in a line: bulk fluorescence.

Here are results for one substance from article PMC2910053.

Where only a bound is given, the exact number is not on record here.

As usually defined, the Kd is the constant that tells how readily two partners part at equilibrium. Lower therefore signals higher affinity. In the case of ssDNA (unspecified, bulk assay), the Kd is less than 2.5 nM.
